Molecular target: Bcl-xL∆L∆CT (C-terminal and loop-truncated Bcl-xL)
Assay: SAXS; purified OM-induced Bcl-xL dimer, 1 mg/ml and 3 mg/ml, 15 °C; mass from forward scattering against lysozyme

**Q.** With “Bcl-xL∆L∆CT (C-terminal and loop-truncated Bcl-xL) (domain or fragment)” as the substance, how does the stoichiometry N read?
**A.** Its stoichiometry N is 2.

From paper PMC4448555
